Measurements: paper PMC11407943, “Cdc14 phosphatases use an intramolecular pseudosubstrate motif to stimulate and regulate catalysis” (The Journal of Biological Chemistry, 2024)
Residue numbers refer to the chain shown, from its start. Starred links: 1 amine or outer side, 2 acyl side, 3 side chain; linkers in the order of their positions; H or OH if unused. Non-standard residues stand in square brackets, D forms with d. No end group written: not given here. pCF2‑Ser = (α,α-difluoromethylene)phosphonoserine, O=C([C@H](CC(F)(F)P(=O)(O)O)N[*:1])[*:2]

Legend:
ScCdc14^1-449 = target: T1, ScCdc14^1-449 (S. cerevisiae, UniProt Q00684 1-449); conditions: both partners purified
T1 construct: Expressed from pDEST17; also called Saccharomyces cerevisiae Cdc14 truncation that retains the SLiCE motif; source: E. coli, purified (HisTrap nickel sepharose)
T1 sequence (looked up): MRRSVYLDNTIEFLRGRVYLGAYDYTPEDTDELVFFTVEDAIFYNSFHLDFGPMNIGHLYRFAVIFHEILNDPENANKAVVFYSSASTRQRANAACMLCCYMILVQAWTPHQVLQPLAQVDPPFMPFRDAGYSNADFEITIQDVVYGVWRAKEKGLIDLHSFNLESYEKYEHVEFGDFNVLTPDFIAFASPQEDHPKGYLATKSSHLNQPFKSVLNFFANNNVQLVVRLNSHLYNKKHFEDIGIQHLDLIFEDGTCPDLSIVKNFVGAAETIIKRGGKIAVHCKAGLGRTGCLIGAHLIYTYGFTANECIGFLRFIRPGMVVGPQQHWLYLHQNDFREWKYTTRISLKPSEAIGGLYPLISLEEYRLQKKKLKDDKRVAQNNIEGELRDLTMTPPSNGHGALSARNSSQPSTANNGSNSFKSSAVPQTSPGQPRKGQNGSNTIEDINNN

ScCdc14^P433A/K435A = target: T2, ScCdc14^P433A/K435A (S. cerevisiae, UniProt Q00684 1-449, P433A | K435A); conditions: both partners purified
T2 construct: source: E. coli, purified (HisTrap nickel sepharose)
T2 sequence (looked up): T1 sequence (looked up) with P433A, K435A

Binder: EV[pCF2‑Ser]PTKR [EV(pCF2-Ser)PTKR]
- Kd (ScCdc14^1-449): 6 ± 2 µM
- Kd (ScCdc14^P433A/K435A): 13 ± 4 µM
